{"source": "patent US10293027B2", "about": "“Methods for treating metabolic disorders using FGF” (Salk Institute for Biological Studies, priority 2010, dated 2019)", "molecules": {"B1": {"name": "FGF-1: recombinant mouse FGF-1 (acidic fibroblast growth factor), a secreted protein that binds heparin and FGF receptors (protein, UniProt P61148 16-155, looked up)", "Fibroblast growth factor 1": "FNLPLGNYKKPKLLYCSNGGHFLRILPDGTVDGTRDRSDQHIQLQLSAESAGEVYIKGTETGQYLAMDTEGLLYGSQTPNEECLFLERLEENHYNTYTSKKHAEKNWFVGLKKNGSCKRGPRTHYGQKAILFLPLPVSSD"}}, "key": {"[1]": {"test_system": "db/db leptin receptor mutant diabetic mice", "assay": "Single s.c. FGF-1 injection, blood glucose in db/db mice", "assay_type": "in vivo, mouse", "conditions": "single s.c. injection 0.5 mg/kg", "source_text": "FIG. 24. FGF-1 effects in db/db mice. […] The db/db model is considered to represent a […] diabetes model than ob/ob.\nThe ob/ob model is considered to represent a very severe diabetic disease. In order to investigate the effect of FGF-1 on less severe diabetic/metabolic disorder models, we tested blood glucose levels in db/db mice and diet induced obese mice."}, "ob/ob male mice": {"test_system": "ob/ob male mice", "assay": "Daily FGF-1 or rosiglitazone treatment of ob/ob mice: fed blood glucose and body composition (Example 5)", "assay_type": "in vivo, mouse", "protocol": "FIGS. 7A-7H. FGF-1 injection studies in rodents. (A) Fed blood glucose in ob/ob male mice treated with FGF-1 (0.5 mg/kg, s.c.), rosiglitazone (TZD, 5 mg/kg, p.o.), or vehicle. FGF-1 was administered once daily, and blood glucose levels were measured at day 0 (basal levels before FGF-1 injection), day 3, and day 6, 1 hour after injection. The values (±SE) shown are the average of the measurements of 5 animals in a group; (B) Sustained glucose lowering effects of FGF-1: Fed blood glucose levels in ob/ob mice at indicated time points after the last FGF-1 injection at day 6. (C-H): 72 hrs after the sixth dose, another dose was given and effects of FGF-1 and TZD on (C) body weight, (D) total body fat, (E) lean weight, (F) weight gain, (G) liver weight, and (H) heart weight were determined.\nIn Example 5, ob/ob male mice (8 wk old) were randomized into three groups and treated with daily subcutaneous (s.c.) injections of recombinant mouse FGF-1 (0.5 mg/kg in PBS), oral rosiglitazone (TZD, 5 mg/kg in 0.5% carboxymethyl cellulose), or vehicle. Blood glucose levels were measure in fed animals one hour after treatment. Total body composition analysis was performed using an EchoMRI-100™ (Echo Medical Systems, LLC).\nEight-week-old male ob/ob mice were treated with recombinant mouse FGF-1 (0.5 mg/kg/day, s.c. in 250 μl), rosiglitazone (TZD, 5 mg/kg/day, p.o. in 300 μl), or vehicle control (s.c. vehicle control 0.9% NaCl, 250 μl/mouse; p.o. vehicle control 0.5% CMC, 300 μl/mouse). Blood glucose was measured one hour after treatment at day 3 and day 6 using a standard protocol. (FIG. 7A).\nBefore treatment, all groups were severely hyperglycemic, as indicated by blood glucose levels of about 400 mg/dl. […] At 6 days, blood glucose levels were even further reduced to around 130-140 mg/dl for both groups. After the sixth dose, blood glucose levels were monitored for another 72 hrs. During this period, both FGF-1- and TZD-treated cohorts maintained normoglycemic levels (<140 mg/dl) for at least 48 hrs (FIG. 7B). At 72 hrs after the sixth dose, a final dose was given, and 12 hrs later, a total body composition analysis was performed by MRI followed by necropsy."}, "ob/ob diabetic mice": {"test_system": "ob/ob diabetic mice", "assay": "Delivery method (s.c., i.p., i.v.) and FGF-1 blood glucose effects (Example 11)", "assay_type": "in vivo, mouse", "protocol": "FIG. 22. Assessment of delivery method on FGF-1 blood glucose effects.\nFIG. 23. Assessment of delivery method on duration of FGF-1 activity. Single subcutaneous (sc) or intravenous (iv) injection of FGF-1 (0.5 mg/kg) in ob/ob mice.\nTo determine if the effects of FGF-1 depend on the route of administration, we tested blood glucose levels of ob/ob mice in response to 0.5 mg/kg body weight FGF-1 delivered s.c., i.p. and i.v. PBS injections were used as controls. […] We next compared i.v. and s.c. injections for duration of the glucose normalizing effect."}, "ob/ob mice": {"test_system": "ob/ob mice", "assay": "Acute effects of FGF-1 on blood glucose: dose response and time courses after s.c. and i.v. administration (Example 6)", "assay_type": "in vivo, mouse", "conditions": "for duration of blood glucose reduction after intravenous administration: 0.2 mg/kg i.v.", "protocol": "FIG. 8. Dose response effect of FGF-1 (s.c., mg/kg) on blood glucose levels of ob/ob mice.\nFIG. 9. Effect of FGF-1 (s.c., 0.5 mg/kg) on blood glucose levels of ob/ob mice.\nFIG. 10. Effect of intravenous FGF1 (0.2 mg/kg) on blood glucose levels of ob/ob mice.\nIn order to establish the acute effects of FGF-1 on blood glucose levels, dose response curves (FIG. 8) and time courses after subcutaneous (FIG. 9) and intravenous (FIG. 10) administration were performed."}, "[2]": {"test_system": "Glucose Transporter 1 (Glut1)", "assay": "Glut1 expression in 3T3-L1 adipocytes", "assay_type": "cell-based, mouse", "protocol": "FIGS. 6A-6B. FGF-1 and rosiglitazone stimulation of Glut1 expression in 3T3-L1 adipocytes. 3T3-L1 adipocytes were treated with FGF-1 (+=50 ng/ml, ++=100 ng/ml), rosiglitazone (1 μM), or in combination. (A) mRNA (top) and protein (bottom) levels of Glucose Transporter 1 (Glut1); (B) mRNA (top) and protein (bottom) levels of Glucose Transporter 4 (Glut4).\n3T3-L1 mouse pre-adipocytes were from American Type Culture Collection (ATCC, Rockville, Md.). Cells were maintained at sub-confluence in growth medium (GM) containing 10% calf serum in Dulbecco's modified Eagle's medium (DMEM) at 37° C. and 5% CO2. For standard adipocyte differentiation, cells were stimulated at 2 days post confluency (referred as day 0) with differentiation medium (DM) containing 10% fetal bovine serum (FBS), 5 μg/ml insulin, 1 μM dexamethasone, and […] 3-isobutyl-1-methylxanthine (IBMX) for 48 hours. […]\nTotal RNA was isolated from mouse tissue and cells using TRIzol reagent (Invitrogen). cDNA was synthesized from 1 μg of DNase-treated total RNA using SuperScript II reverse transcriptase (Invitrogen). mRNA levels were quantified by QPCR with SYBR Green (Invitrogen). Samples were run in technical triplicates, and relative mRNA levels were calculated by using the standard curve methodology and normalized against 36B4 mRNA levels in the same samples."}}, "note": "“Also recorded” adds a separate entry of the source.", "data": [{"molecule": "B1", "values": [{"measurement": "blood glucose in db/db mice", "setting": "[1]", "result": "effective for reducing blood glucose levels in both systems; also recorded: normalizes blood glucose"}, {"measurement": "blood glucose levels at day three", "setting": "ob/ob male mice; fed ob/ob male mice, one hour after treatment, FGF-1 0.5 mg/kg/day s.c., TZD 5 mg/kg/day p.o., about 400 mg/dl before treatment", "result": "about 200 mg/dl"}, {"measurement": "blood glucose (in words)", "setting": "ob/ob male mice; ob/ob diabetic mice, FGF-1 administration", "result": "decreases fed blood glucose in ob/ob mice; also recorded: normalizes their glucose levels"}, {"measurement": "fat-lean ratio", "setting": "ob/ob male mice; ob/ob mice, total body composition by MRI", "result": "improves their fat-lean ratio"}, {"measurement": "acute blood glucose effect by s.c., i.p. and i.v. delivery", "setting": "ob/ob diabetic mice; 0.5 mg/kg", "result": "about the same for all three injection methods"}, {"measurement": "time of stable glucose levels after intravenous administration", "setting": "ob/ob diabetic mice; 0.5 mg/kg i.v., duration of the test", "result": "at least 60 hours"}, {"measurement": "duration of glucose normalizing effect, iv compared to sc", "setting": "ob/ob diabetic mice; single injection 0.5 mg/kg", "result": "persist longer when administered iv as compared to sc"}, {"measurement": "duration of blood glucose reduction after intravenous administration", "setting": "ob/ob mice; ob/ob mice", "result": "significantly reduced blood glucose for at least one week; also recorded: much longer lasting (at least one week)"}, {"measurement": "duration of blood glucose reduction after intravenous administration", "setting": "ob/ob mice; ob/ob mice, listed as FGF1", "result": "last up to one week"}, {"measurement": "dose dependence of glucose reduction", "setting": "ob/ob mice; ob/ob mice", "result": "dramatic dose-dependent reduction of glucose levels"}, {"measurement": "EC50 of glucose lowering effect", "setting": "ob/ob mice; s.c., blood glucose of ob/ob mice, dose response", "result": 0.25, "unit": "mg/kg"}, {"measurement": "dose at which maximum glucose lowering effects are reached", "setting": "ob/ob mice; s.c., ob/ob mice", "result": 0.5, "unit": "mg/kg"}, {"measurement": "onset of effect of subcutaneous dosing", "setting": "ob/ob mice; s.c., ob/ob mice", "result": "effective within a matter of hours"}, {"measurement": "expression of GLUT1 in combination with rosiglitazone", "setting": "[2]; 3T3-L1 adipocytes, FGF-1 plus rosiglitazone (1 μM)", "result": "acts synergistically with rosiglitazone"}, {"measurement": "expression of GLUT1", "setting": "[2]; mouse 3T3-L1 adipocytes, prolonged treatment, FGF-1 50 or 100 ng/ml", "result": "induces the expression of GLUT1"}]}]}
